The values that follow come from patent publication US20020192214A1.

For the experiment, the target named is human eosinophil eotaxin receptor CC CKR3, stably expressed in AML14.3D10 cells (human) (UniProt P51677). The experiment is described as follows: cell-based or functional assay.
Chain of human eosinophil eotaxin receptor CC CKR3, stably expressed in AML14.3D10 cells (human) (P51677 whole entry): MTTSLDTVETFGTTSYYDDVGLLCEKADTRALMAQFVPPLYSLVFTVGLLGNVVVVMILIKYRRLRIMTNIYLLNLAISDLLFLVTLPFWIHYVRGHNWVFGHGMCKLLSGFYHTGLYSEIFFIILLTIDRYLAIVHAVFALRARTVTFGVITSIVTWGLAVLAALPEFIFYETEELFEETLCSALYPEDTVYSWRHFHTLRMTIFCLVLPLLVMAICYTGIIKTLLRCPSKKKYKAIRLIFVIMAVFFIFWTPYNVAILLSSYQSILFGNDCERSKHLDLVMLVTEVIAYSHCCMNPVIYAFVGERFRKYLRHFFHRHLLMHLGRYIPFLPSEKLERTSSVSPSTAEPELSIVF

In turn, “IL-8 (from UniProt P10145 28-99) (ligand)” showed a Ca^2+-flux (intracellular Ca^2+ levels) greater than 1 µM.
